The data set has as its system Escherichia coli TOP10. The experiment in a line: shrunken log2 fold change of peptide-encoding DNA abundance (4.5 h post-induction vs induction); higher = less antimicrobial activity (less host growth inhibition). Conditions: time post-induction: 4.5 h; library: site-saturation at positions 5, 18, 19, 20.
In the case of RRIRYRPPRLPRPRPRPPMGPRP, the “shrunken log2 fold change” value is -0.239.

As to RRIRERPPRLPRPRPRPECTPRP, the “shrunken log2 fold change” value amounted to 0.187.

As for RRIRERPPRLPRPRPRPDADPRP, the “shrunken log2 fold change” value worked out at 0.0155.

Take RRIRERPPRLPRPRPRPDHSPRP: the “shrunken log2 fold change” value was -0.184.

In the case of RRIRQRPPRLPRPRPRPQLTPRP, the “shrunken log2 fold change” value is -0.405.

Take RRIRWRPPRLPRPRPRPQVAPRP: the “shrunken log2 fold change” value was 0.472.

Regarding RRIRLRPPRLPRPRPRPEAVPRP, the “shrunken log2 fold change” value was -0.0408.

As to RRIRWRPPRLPRPRPRPYKIPRP, the “shrunken log2 fold change” value was -0.286.

RRIRWRPPRLPRPRPRPMFVPRP: the “shrunken log2 fold change” value was -0.51.

As for RRIRIRPPRLPRPRPRPWSPPRP, the “shrunken log2 fold change” value was -0.269.

As for RRIRCRPPRLPRPRPRPYEYPRP, the “shrunken log2 fold change” value was -0.769.

Take RRIRGRPPRLPRPRPRPTIFPRP: the “shrunken log2 fold change” value turned out to be 0.127.

As for RRIRWRPPRLPRPRPRPWMFPRP, the “shrunken log2 fold change” value turned out to be 0.00732.

Regarding RRIRYRPPRLPRPRPRPCFWPRP, the “shrunken log2 fold change” value was -0.136.

Regarding RRIRCRPPRLPRPRPRPKESPRP, the “shrunken log2 fold change” value amounted to 0.0858.

As to RRIRLRPPRLPRPRPRPHNCPRP, the “shrunken log2 fold change” value is -0.192.

RRIRRRPPRLPRPRPRPDQPPRP: the “shrunken log2 fold change” value is 0.0262.

As for RRIRNRPPRLPRPRPRPAIAPRP, the “shrunken log2 fold change” value turned out to be 0.0215.

Consider RRIRGRPPRLPRPRPRPSVKPRP, for which the “shrunken log2 fold change” value came to 0.293.

Take RRIRFRPPRLPRPRPRPMMHPRP: the “shrunken log2 fold change” value was -0.181.

In the case of RRIRCRPPRLPRPRPRPVMRPRP, the “shrunken log2 fold change” value was found to be 0.16.

RRIRMRPPRLPRPRPRPSQAPRP: the “shrunken log2 fold change” value was 0.689.

In the case of RRIRDRPPRLPRPRPRPHDIPRP, the “shrunken log2 fold change” value was 0.0555.

For the sequence RRIRNRPPRLPRPRPRPNTYPRP, the “shrunken log2 fold change” value was -0.971.

For the sequence RRIRDRPPRLPRPRPRPCASPRP, the “shrunken log2 fold change” value was -0.0652.

Consider RRIRERPPRLPRPRPRPYEFPRP, for which the “shrunken log2 fold change” value is 0.00902.

As to RRIRDRPPRLPRPRPRPPGIPRP, the “shrunken log2 fold change” value is 0.233.

Turning to RRIRYRPPRLPRPRPRPPPWPRP, the “shrunken log2 fold change” value was 0.358.

As to RRIRARPPRLPRPRPRPVTLPRP, the “shrunken log2 fold change” value was -0.121.

Turning to RRIRKRPPRLPRPRPRPNGIPRP, the “shrunken log2 fold change” value is -0.029.

As to RRIRSRPPRLPRPRPRPPPQPRP, the “shrunken log2 fold change” value came to 0.835.

Consider RRIRARPPRLPRPRPRPEHVPRP, for which the “shrunken log2 fold change” value was found to be 0.269.

Turning to RRIRQRPPRLPRPRPRPELPPRP, the “shrunken log2 fold change” value is -0.0769.

With RRIRVRPPRLPRPRPRPSMLPRP, the “shrunken log2 fold change” value was -0.395.

In the case of RRIRYRPPRLPRPRPRPQTTPRP, the “shrunken log2 fold change” value was -0.0405.

For the sequence RRIRYRPPRLPRPRPRPRFVPRP, the “shrunken log2 fold change” value is -1.02.

As for RRIRVRPPRLPRPRPRPDCVPRP, the “shrunken log2 fold change” value worked out at 0.0012.

On to RRIRFRPPRLPRPRPRPVESPRP, for which the “shrunken log2 fold change” value is -0.0712.

Consider RRIRDRPPRLPRPRPRPRPPPRP, for which the “shrunken log2 fold change” value worked out at 0.935.

Regarding RRIRLRPPRLPRPRPRPHAAPRP, the “shrunken log2 fold change” value is -0.343.

In the case of RRIRERPPRLPRPRPRPKENPRP, the “shrunken log2 fold change” value was -0.135.

On to RRIRFRPPRLPRPRPRPEFNPRP, for which the “shrunken log2 fold change” value was -0.199.

Consider RRIRRRPPRLPRPRPRPFHVPRP, for which the “shrunken log2 fold change” value was -0.00804.

As for RRIRPRPPRLPRPRPRPHGIPRP, the “shrunken log2 fold change” value was 0.0828.

Turning to RRIRWRPPRLPRPRPRPKFKPRP, the “shrunken log2 fold change” value was -0.00802.

For the sequence RRIRSRPPRLPRPRPRPSGNPRP, the “shrunken log2 fold change” value was -0.571.

RRIRVRPPRLPRPRPRPSNQPRP: the “shrunken log2 fold change” value is -0.507.

For RRIRSRPPRLPRPRPRPSHKPRP, the “shrunken log2 fold change” value was -0.658.

As to RRIRTRPPRLPRPRPRPAKDPRP, the “shrunken log2 fold change” value is -0.399.

For the sequence RRIRSRPPRLPRPRPRPDGSPRP, the “shrunken log2 fold change” value is -0.0196.

Turning to RRIRRRPPRLPRPRPRPDRFPRP, the “shrunken log2 fold change” value was 0.394.

As for RRIRPRPPRLPRPRPRPDGVPRP, the “shrunken log2 fold change” value came to 0.14.

Turning to RRIRTRPPRLPRPRPRPDKSPRP, the “shrunken log2 fold change” value was -0.0816.

Take RRIRHRPPRLPRPRPRPTDCPRP: the “shrunken log2 fold change” value amounted to 0.038.

Consider RRIRVRPPRLPRPRPRPQFEPRP, for which the “shrunken log2 fold change” value was -0.119.

Consider RRIRKRPPRLPRPRPRPAHDPRP, for which the “shrunken log2 fold change” value came out at 0.536.

Consider RRIRGRPPRLPRPRPRPFEMPRP, for which the “shrunken log2 fold change” value is 0.396.

Consider RRIRERPPRLPRPRPRPFWCPRP, for which the “shrunken log2 fold change” value is -0.014.

With RRIRPRPPRLPRPRPRPTKDPRP, the “shrunken log2 fold change” value was -0.166.

Turning to RRIRSRPPRLPRPRPRPPAQPRP, the “shrunken log2 fold change” value was 0.922.

With RRIRIRPPRLPRPRPRPKICPRP, the “shrunken log2 fold change” value is -0.883.

As to RRIRFRPPRLPRPRPRPCRVPRP, the “shrunken log2 fold change” value is -0.129.

Turning to RRIRWRPPRLPRPRPRPCAAPRP, the “shrunken log2 fold change” value worked out at 1.32.

Take RRIRGRPPRLPRPRPRPIDPPRP: the “shrunken log2 fold change” value was -0.0473.

With RRIRKRPPRLPRPRPRPGLLPRP, the “shrunken log2 fold change” value was 0.494.

Turning to RRIRHRPPRLPRPRPRPEAGPRP, the “shrunken log2 fold change” value worked out at 0.264.

With RRIRFRPPRLPRPRPRPRQGPRP, the “shrunken log2 fold change” value came to 0.259.

As to RRIRKRPPRLPRPRPRPLSKPRP, the “shrunken log2 fold change” value worked out at 0.213.

As to RRIRCRPPRLPRPRPRPYSGPRP, the “shrunken log2 fold change” value is -0.566.

Turning to RRIRPRPPRLPRPRPRPTAMPRP, the “shrunken log2 fold change” value was found to be 0.0577.

As to RRIRPRPPRLPRPRPRPAEDPRP, the “shrunken log2 fold change” value was -0.114.

Turning to RRIRVRPPRLPRPRPRPKALPRP, the “shrunken log2 fold change” value was 0.0497.

With RRIRTRPPRLPRPRPRPYTMPRP, the “shrunken log2 fold change” value is -0.232.

Turning to RRIRFRPPRLPRPRPRPKHQPRP, the “shrunken log2 fold change” value is -0.131.

Turning to RRIRTRPPRLPRPRPRPELSPRP, the “shrunken log2 fold change” value is -0.0448.

Regarding RRIRTRPPRLPRPRPRPEKAPRP, the “shrunken log2 fold change” value is 0.00451.

In the case of RRIRWRPPRLPRPRPRPPGTPRP, the “shrunken log2 fold change” value was 0.475.

In the case of RRIRMRPPRLPRPRPRPGRRPRP, the “shrunken log2 fold change” value came to 0.724.

In the case of RRIRRRPPRLPRPRPRPWTRPRP, the “shrunken log2 fold change” value was -0.0224.

Regarding RRIRPRPPRLPRPRPRPRDAPRP, the “shrunken log2 fold change” value was determined as 0.635.

Consider RRIRMRPPRLPRPRPRPQKMPRP, for which the “shrunken log2 fold change” value amounted to 0.0453.

For the sequence RRIRLRPPRLPRPRPRPNHEPRP, the “shrunken log2 fold change” value was -0.0961.

In the case of RRIRIRPPRLPRPRPRPQTIPRP, the “shrunken log2 fold change” value is -0.337.

As to RRIRVRPPRLPRPRPRPYLWPRP, the “shrunken log2 fold change” value was -0.269.

Consider RRIRFRPPRLPRPRPRPRTEPRP, for which the “shrunken log2 fold change” value was 0.202.

For the sequence RRIRNRPPRLPRPRPRPITFPRP, the “shrunken log2 fold change” value is -0.0674.

As for RRIRKRPPRLPRPRPRPVRNPRP, the “shrunken log2 fold change” value was 0.308.

RRIRDRPPRLPRPRPRPTEGPRP: the “shrunken log2 fold change” value was -0.0161.

For the sequence RRIRGRPPRLPRPRPRPGQSPRP, the “shrunken log2 fold change” value is -0.00151.

Regarding RRIRTRPPRLPRPRPRPISHPRP, the “shrunken log2 fold change” value is -0.328.

With RRIRDRPPRLPRPRPRPDVGPRP, the “shrunken log2 fold change” value was 0.232.

As to RRIRVRPPRLPRPRPRPKNKPRP, the “shrunken log2 fold change” value is -0.169.

For the sequence RRIRDRPPRLPRPRPRPVHRPRP, the “shrunken log2 fold change” value was found to be 0.0594.

Turning to RRIRQRPPRLPRPRPRPHMPPRP, the “shrunken log2 fold change” value is -0.0493.

Turning to RRIRHRPPRLPRPRPRPVRNPRP, the “shrunken log2 fold change” value amounted to 0.0796.

RRIRMRPPRLPRPRPRPNRFPRP: the “shrunken log2 fold change” value is -0.0257.

On to RRIRWRPPRLPRPRPRPFHFPRP, for which the “shrunken log2 fold change” value is -0.451.

As to RRIRTRPPRLPRPRPRPFEVPRP, the “shrunken log2 fold change” value is -0.101.

As for RRIRTRPPRLPRPRPRPKFAPRP, the “shrunken log2 fold change” value came to 0.232.

For the sequence RRIRLRPPRLPRPRPRPSQPPRP, the “shrunken log2 fold change” value was -0.0367.

RRIRYRPPRLPRPRPRPASDPRP: the “shrunken log2 fold change” value was -0.348.

Regarding RRIRSRPPRLPRPRPRPEWLPRP, the “shrunken log2 fold change” value came out at 0.625.

As to RRIRYRPPRLPRPRPRPTCQPRP, the “shrunken log2 fold change” value was -0.0443.

Turning to RRIRARPPRLPRPRPRPEDYPRP, the “shrunken log2 fold change” value was -0.0332.

Take RRIRPRPPRLPRPRPRPNDPPRP: the “shrunken log2 fold change” value was -0.0507.

Take RRIRIRPPRLPRPRPRPRVPPRP: the “shrunken log2 fold change” value amounted to 1.5.

For RRIRNRPPRLPRPRPRPGHFPRP, the “shrunken log2 fold change” value turned out to be 0.0512.

RRIRARPPRLPRPRPRPAHPPRP: the “shrunken log2 fold change” value was determined as 0.653.

For the sequence RRIRWRPPRLPRPRPRPSLEPRP, the “shrunken log2 fold change” value was determined as 0.067.

With RRIRTRPPRLPRPRPRPLAFPRP, the “shrunken log2 fold change” value turned out to be 2.19.

In the case of RRIRTRPPRLPRPRPRPSMMPRP, the “shrunken log2 fold change” value was -0.0802.

For the sequence RRIRLRPPRLPRPRPRPYDAPRP, the “shrunken log2 fold change” value was -0.211.

As to RRIRLRPPRLPRPRPRPSSKPRP, the “shrunken log2 fold change” value is -0.524.

On to RRIRNRPPRLPRPRPRPKQEPRP, for which the “shrunken log2 fold change” value stood at 0.0268.

On to RRIRTRPPRLPRPRPRPAIGPRP, for which the “shrunken log2 fold change” value stood at 0.1.

Regarding RRIRRRPPRLPRPRPRPVFFPRP, the “shrunken log2 fold change” value was determined as 0.255.

As for RRIRSRPPRLPRPRPRPSVCPRP, the “shrunken log2 fold change” value stood at 0.0526.

In the case of RRIRYRPPRLPRPRPRPSEEPRP, the “shrunken log2 fold change” value is -0.111.

Consider RRIRRRPPRLPRPRPRPWQQPRP, for which the “shrunken log2 fold change” value was -0.0108.

As to RRIRGRPPRLPRPRPRPSVGPRP, the “shrunken log2 fold change” value was determined as 0.333.

For RRIRFRPPRLPRPRPRPFGFPRP, the “shrunken log2 fold change” value is -0.436.

As to RRIRNRPPRLPRPRPRPVAVPRP, the “shrunken log2 fold change” value is -0.0786.

Turning to RRIRIRPPRLPRPRPRPTTHPRP, the “shrunken log2 fold change” value is -0.441.

Turning to RRIRNRPPRLPRPRPRPFCVPRP, the “shrunken log2 fold change” value was -0.0352.

As for RRIRFRPPRLPRPRPRPYGIPRP, the “shrunken log2 fold change” value was -0.00674.

Values taken from the supplement of paper PMC9112550, “Optimization of the antimicrobial peptide Bac7 by deep mutational scanning” (BMC Biology, 2022).
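Also: peptides expressed intracellularly from a pBAD plasmid library in pooled LB shake-flask culture, induced with 0.3% L-arabinose, DNA abundance read by NGS, three biological replicates, DESeq2 with apeglm shrinkage.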
